Measured values from patent publication US20220041686A1 (Stanford University, published 2022).

Key:
Experiment in all cases: quantification of the flow cytometry plots of panel A (B7H3 Fc staining, CAR MFI), with or without 3 µM grazoprevir [Cont.) B]
[1] = target: T1, 065
T1 construct: Construct named only by number on the sheets; also called B7H3-cis SNIP scFv CAR with cleavage site 065

[2] = target: T2, 066
T2 construct: Construct named only by number on the sheets; also called B7H3-cis SNIP scFv CAR with cleavage site 066

[3] = target: T3, B7H3-SNIP-scFv CAR (extracellular; cis)
T3 construct: Only the full-length (uncleaved) CAR carries the scFv and is stained by B7H3 Fc; also called B7H3-cis SNIP scFv; B7H3-cis SNIP scFv CAR

B1: B7H3-Fc (Fc fusion)
chain: LEVQVPEDPVVALVGTDATLCCSFSPEPGFSLAQLNLIWQLTDTKQLVHSFAEGQDQGSAYANRTALFPDLLAQGNASLRLQRVRVADEGSFTCFVSIRDFGSAAVSLQVAAPYSKPSMTLEPNKDLRPGDTVTITCSSYQGYPEAEVFWQDGQGVPLTGNVTTSQMANEQGLFDVHSILRVVLGANGTYSCLVRNPVLQQDAHSSVTITPQRSPTGAVEVQVPEDPVVALVGTDATLRCSFSPEPGFSLAQLNLIWQLTDTKQLVHSFTEGRDQGSAYANRTALFPDLLAQGNASLRLQRVRVADEGSFTCFVSIRDFGSAAVSLQVAAPYSKPSMTLEPNKDLRPGDTVTITCSSYRGYPEAEVFWQDGQGVPLTGNVTTSQMANEQGLFDVHSVLRVVLGANGTYSCLVRNPVLQQDAHGSVTITGQPMT
notes: Staining reagent for flow cytometry; not shown: Fc part
fold CAR MFI, + Drug over - Drug [1]: 157 fold | fold CAR MFI, + Drug over - Drug [2]: 129 fold | fold CAR MFI, + Drug over - Drug [3]: 70 fold
